# Laboratory results from US20090252683A1 (Amgen, published 2009).
# B1: 2G8LH×SEQ ID NO. 12 bispecific single chain antibody (bispecific antibody)
# chain: DVVMTQTPLTLSVTIGQPASISCKSSQSLLYSNGKTYLNWILQRPGQSPKRLIYLVSKLDSGVPDRFTGSGSGTDFTLKISRVEAEDLGVYYCVQGTHFPLTFGAGTKLELKGGGGSGGGGSGGGGSEVQLQQSGAELVRSGASVKLSCTASGFNIKDYYLHWVKQRPEQGLEWIAWIDLENGDIKYAPKFQGKATITADTSSNTAYLQLSSLTSEDTAVYYCNPYYYGSNYDYAMDYWGQGTSVTVSSGGGGSQAVVTQESALTTSPGETVTLTCRSSTGAVTTSNYANWVQEKPDHLFTGLIGGTNKRAPGVPARFSGSLIGDKAALTITGAQTEDEAIYFCALWYSNLWVFGGGTKLTVLGGGGSGGGGSGGGGSEVKLLESGGGLVQPKGSLKLSCAASGFTFNTYAMNWVRQAPGKGLEWVARIRSKYNNYATYYADSVKDRFTISRDDSQSILYLQMNNLKTEDTAMYYCVRHGNFGNSYVSWFAYWGQGTLVTVSAHHHHHH
# B2: 2G8LH×SEQ ID NO. 16 bispecific single chain antibody (bispecific antibody)
# chain: DVVMTQTPLTLSVTIGQPASISCKSSQSLLYSNGKTYLNWILQRPGQSPKRLIYLVSKLDSGVPDRFTGSGSGTDFTLKISRVEAEDLGVYYCVQGTHFPLTFGAGTKLELKGGGGSGGGGSGGGGSEVQLQQSGAELVRSGASVKLSCTASGFNIKDYYLHWVKQRPEQGLEWIAWIDLENGDIKYAPKFQGKATITADTSSNTAYLQLSSLTSEDTAVYYCNPYYYGSNYDYAMDYWGQGTSVTVSSGGGGSQVVLTQSPAIMSAFPGEKVTMTCSASSSVSYMNWYQQKSGTSPKRWIYDSSKLASGVPARFSGSGSGTSYSLTISSMETEDAATYYCQQWSRNPPTFGGGTKLQITGGGGSGGGGSGGGGSQVQLQQSGAELARPGASVKMSCKASGYTFTRSTMHWVKQRPGQGLEWIGYINPSSAYTNYNQKFKDKATLTADKSSSTAYMQLSSLTSEDSAVYYCASPQVHYDYNGFPYWGQGTLVTVSAHHHHHH
# B3: 2G8LH×SEQ ID NO. 14 bispecific single chain antibody (bispecific antibody)
# chain: DVVMTQTPLTLSVTIGQPASISCKSSQSLLYSNGKTYLNWILQRPGQSPKRLIYLVSKLDSGVPDRFTGSGSGTDFTLKISRVEAEDLGVYYCVQGTHFPLTFGAGTKLELKGGGGSGGGGSGGGGSEVQLQQSGAELVRSGASVKLSCTASGFNIKDYYLHWVKQRPEQGLEWIAWIDLENGDIKYAPKFQGKATITADTSSNTAYLQLSSLTSEDTAVYYCNPYYYGSNYDYAMDYWGQGTSVTVSSGGGGSQVQLQQSGAELARPGASVKMSCKASGYTFTRSTMHWVKQRPGQGLEWIGYINPSSAYTNYNQKFKDKATLTADKSSSTAYMQLSSLTSEDSAVYYCASPQVHYDYNGFPYWGQGTLVTVSAGGGGSGGGGSGGGGSQVVLTQSPAIMSAFPGEKVTMTCSASSSVSYMNWYQQKSGTSPKRWIYDSSKLASGVPARFSGSGSGTSYSLTISSMETEDAATYYCQQWSRNPPTFGGGTKLQITHHHHHH
# B4: 2G8HL×SEQ ID NO. 10 bispecific single chain antibody (bispecific antibody)
# chain: EVQLQQSGAELVRSGASVKLSCTASGFNIKDYYLHWVKQRPEQGLEWIAWIDLENGDIKYAPKFQGKATITADTSSNTAYLQLSSLTSEDTAVYYCNPYYYGSNYDYAMDYWGQGTSVTVSSGGGGSGGGGSGGGGSDVVMTQTPLTLSVTIGQPASISCKSSQSLLYSNGKTYLNWILQRPGQSPKRLIYLVSKLDSGVPDRFTGSGSGTDFTLKISRVEAEDLGVYYCVQGTHFPLTFGAGTKLELKSGGGGSEVKLLESGGGLVQPKGSLKLSCAASGFTFNTYAMNWVRQAPGKGLEWVARIRSKYNNYATYYADSVKDRFTISRDDSQSILYLQMNNLKTEDTAMYYCVRHGNFGNSYVSWFAYWGQGTLVTVSAGGGGSGGGGSGGGGSQAVVTQESALTTSPGETVTLTCRSSTGAVTTSNYANWVQEKPDHLFTGLIGGTNKRAPGVPARFSGSLIGDKAALTITGAQTEDEAIYFCALWYSNLWVFGGGTKLTVLHHHHHH
# B5: 2G8HL×SEQ ID NO. 16 bispecific single chain antibody (bispecific antibody)
# chain: EVQLQQSGAELVRSGASVKLSCTASGFNIKDYYLHWVKQRPEQGLEWIAWIDLENGDIKYAPKFQGKATITADTSSNTAYLQLSSLTSEDTAVYYCNPYYYGSNYDYAMDYWGQGTSVTVSSGGGGSGGGGSGGGGSDVVMTQTPLTLSVTIGQPASISCKSSQSLLYSNGKTYLNWILQRPGQSPKRLIYLVSKLDSGVPDRFTGSGSGTDFTLKISRVEAEDLGVYYCVQGTHFPLTFGAGTKLELKSGGGGSQVVLTQSPAIMSAFPGEKVTMTCSASSSVSYMNWYQQKSGTSPKRWIYDSSKLASGVPARFSGSGSGTSYSLTISSMETEDAATYYCQQWSRNPPTFGGGTKLQITGGGGSGGGGSGGGGSQVQLQQSGAELARPGASVKMSCKASGYTFTRSTMHWVKQRPGQGLEWIGYINPSSAYTNYNQKFKDKATLTADKSSSTAYMQLSSLTSEDSAVYYCASPQVHYDYNGFPYWGQGTLVTVSAHHHHHH
# B6: 2G8HL×SEQ ID NO. 14 bispecific single chain antibody (bispecific antibody)
# chain: EVQLQQSGAELVRSGASVKLSCTASGFNIKDYYLHWVKQRPEQGLEWIAWIDLENGDIKYAPKFQGKATITADTSSNTAYLQLSSLTSEDTAVYYCNPYYYGSNYDYAMDYWGQGTSVTVSSGGGGSGGGGSGGGGSDVVMTQTPLTLSVTIGQPASISCKSSQSLLYSNGKTYLNWILQRPGQSPKRLIYLVSKLDSGVPDRFTGSGSGTDFTLKISRVEAEDLGVYYCVQGTHFPLTFGAGTKLELKSGGGGSQVQLQQSGAELARPGASVKMSCKASGYTFTRSTMHWVKQRPGQGLEWIGYINPSSAYTNYNQKFKDKATLTADKSSSTAYMQLSSLTSEDSAVYYCASPQVHYDYNGFPYWGQGTLVTVSAGGGGSGGGGSGGGGSQVVLTQSPAIMSAFPGEKVTMTCSASSSVSYMNWYQQKSGTSPKRWIYDSSKLASGVPARFSGSGSGTSYSLTISSMETEDAATYYCQQWSRNPPTFGGGTKLQITHHHHHH
# B7: 2G8LH×SEQ ID NO. 10 bispecific single chain antibody (bispecific antibody)
# chain: DVVMTQTPLTLSVTIGQPASISCKSSQSLLYSNGKTYLNWILQRPGQSPKRLIYLVSKLDSGVPDRFTGSGSGTDFTLKISRVEAEDLGVYYCVQGTHFPLTFGAGTKLELKGGGGSGGGGSGGGGSEVQLQQSGAELVRSGASVKLSCTASGFNIKDYYLHWVKQRPEQGLEWIAWIDLENGDIKYAPKFQGKATITADTSSNTAYLQLSSLTSEDTAVYYCNPYYYGSNYDYAMDYWGQGTSVTVSSGGGGSEVKLLESGGGLVQPKGSLKLSCAASGFTFNTYAMNWVRQAPGKGLEWVARIRSKYNNYATYYADSVKDRFTISRDDSQSILYLQMNNLKTEDTAMYYCVRHGNFGNSYVSWFAYWGQGTLVTVSAGGGGSGGGGSGGGGSQAVVTQESALTTSPGETVTLTCRSSTGAVTTSNYANWVQEKPDHLFTGLIGGTNKRAPGVPARFSGSLIGDKAALTITGAQTEDEAIYFCALWYSNLWVFGGGTKLTVLHHHHHH
# B8: 2G8HL×SEQ ID NO. 12 bispecific single chain antibody (bispecific antibody)
# chain: EVQLQQSGAELVRSGASVKLSCTASGFNIKDYYLHWVKQRPEQGLEWIAWIDLENGDIKYAPKFQGKATITADTSSNTAYLQLSSLTSEDTAVYYCNPYYYGSNYDYAMDYWGQGTSVTVSSGGGGSGGGGSGGGGSDVVMTQTPLTLSVTIGQPASISCKSSQSLLYSNGKTYLNWILQRPGQSPKRLIYLVSKLDSGVPDRFTGSGSGTDFTLKISRVEAEDLGVYYCVQGTHFPLTFGAGTKLELKSGGGGSQAVVTQESALTTSPGETVTLTCRSSTGAVTTSNYANWVQEKPDHLFTGLIGGTNKRAPGVPARFSGSLIGDKAALTITGAQTEDEAIYFCALWYSNLWVFGGGTKLTVLGGGGSGGGGSGGGGSEVKLLESGGGLVQPKGSLKLSCAASGFTFNTYAMNWVRQAPGKGLEWVARIRSKYNNYATYYADSVKDRFTISRDDSQSILYLQMNNLKTEDTAMYYCVRHGNFGNSYVSWFAYWGQGTLVTVSAHHHHHH
# Molecular target: T1, cynomolgus EpCAM antigen on transfected CHO cells (cynomolgus, UniProt Q1WER1 24-265 (rhesus entry))
# T1 construct: 48 holds the extracellular portion
# T1 sequence: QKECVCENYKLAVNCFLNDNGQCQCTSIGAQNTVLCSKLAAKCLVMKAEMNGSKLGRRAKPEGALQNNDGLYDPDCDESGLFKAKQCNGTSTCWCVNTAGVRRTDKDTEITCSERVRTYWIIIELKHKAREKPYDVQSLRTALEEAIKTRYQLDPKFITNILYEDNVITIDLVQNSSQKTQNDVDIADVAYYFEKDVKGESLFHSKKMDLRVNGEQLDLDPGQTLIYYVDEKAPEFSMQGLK
# Test: FACS, cynomolgus EpCAM transfected CHO cells (FIG. 8B), anti-His detection
# From the text: (§1) FIG. 8: FACS assay for binding of 2G8LH×SEQ ID NO. 12, 2G8LH×SEQ ID NO. 10, 2G8LH×SEQ ID NO. 16, 2G8LH×SEQ ID NO. 14, 2G8HL×SEQ ID NO. 12, 2G8HL×SEQ ID NO. 10, 2G8HL×SEQ ID NO. 16 and 2G8HL×SEQ ID NO. 14 on Kato III (FIG. 8A) cells or cynomolgus EpCAM transfected CHO cells (FIG. 8B) and HPB-ALL cells. Antigen binding was clearly detectable for the anti EpCAM specificities as well as for the anti CD3 specificities. As a negative control for binding to cynomolgus EpCAM, the 5-10LH×SEQ ID NO.
# (§2) Binding of the bifunctional constructs from cell culture supernatants or binding of purified bifunctional constructs to the human EpCAM antigen on Kato III cells or cynomolgus EpCAM transfected CHO cells and to the CD3 antigen on HPB-ALL cells was tested using an FACS assay. For that purpose 2.5×10⁵ cells were incubated with 50 μl supernatant or with 5 μg/ml of the purified constructs in 50 μl PBS with 2% FCS. The binding of the constructs was detected with an anti-His antibody (Penta-His Antibody, BSA free, obtained from Qiagen GmbH, Hilden, FRG) at 2 μg/ml in 50 μl PBS with 2% FCS. […] The samples were measured on a FACSscan (BD biosciences, Heidelberg, FRG). Antigen binding was clearly detectable for the anti EpCAM specificities as well as for the anti CD3 specificities (see FIG. 8). As a negative control for binding to cynomolgus EpCAM, the 5-10LH×SEQ ID NO. […] The 5-10LH part only binds to human EpCAM.
row,Binder,binding result
1,B1,binds
2,B2,binds
3,B3,binds
4,B4,binds
5,B5,binds
6,B6,binds

# Molecular target: T1, cynomolgus EpCAM antigen on transfected …
# Test: cell-based or functional assay
Binder,"EC50 (half maximal killing), FACS-based cytotoxicity, cynomolgus EpCAM transfected CHO target cells, cynomolgus PBMC effector cells","EC50 (half maximal killing), FACS-based cytotoxicity, cynomolgus EpCAM transfected CHO target cells, human PBMC effector cells"
B7,0.0398 µg/mL,0.0011 µg/mL
B8,0.0603 µg/mL,0.00364 µg/mL

# Molecular target: cynomolgus CD3 antigen on cynomolgus PBMC / macaque T cells (Macaca fascicularis (cynomolgus), UniProt Q95LI5 22-117; Q95LI7 23-110; Q95LI8 22-103)
# Test: cell-based or functional assay
# Sequence of cynomolgus CD3 antigen on cynomolgus PBMC / macaque T cells (Q95LI5 22-117, chain 1 of 3): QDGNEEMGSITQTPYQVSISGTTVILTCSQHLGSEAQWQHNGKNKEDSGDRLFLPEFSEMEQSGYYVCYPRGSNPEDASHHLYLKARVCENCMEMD
# Sequence of cynomolgus CD3 antigen on cynomolgus PBMC / macaque T cells (Q95LI7 23-110, chain 2 of 3): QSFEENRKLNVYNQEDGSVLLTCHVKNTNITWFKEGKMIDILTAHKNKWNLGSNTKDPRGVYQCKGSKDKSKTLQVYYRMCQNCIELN
# Sequence of cynomolgus CD3 antigen on cynomolgus PBMC / macaque T cells (Q95LI8 22-103, chain 3 of 3): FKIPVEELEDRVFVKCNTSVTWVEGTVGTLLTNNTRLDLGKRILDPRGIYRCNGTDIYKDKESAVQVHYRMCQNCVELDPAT
row,Binder,"EC50 (half maximal killing), FACS-based cytotoxicity, cynomolgus EpCAM transfected CHO target cells, cynomolgus PBMC effector cells"
1,B7,0.0398 µg/mL
2,B8,0.0603 µg/mL

# Molecular target: T2, human EpCAM antigen on Kato III cells or human EpCAM transfected CHO cells (human, UniProt P16422 24-265)
# T2 construct: 137 holds only the extracellular portion; the protein stood whole on cells
# T2 sequence: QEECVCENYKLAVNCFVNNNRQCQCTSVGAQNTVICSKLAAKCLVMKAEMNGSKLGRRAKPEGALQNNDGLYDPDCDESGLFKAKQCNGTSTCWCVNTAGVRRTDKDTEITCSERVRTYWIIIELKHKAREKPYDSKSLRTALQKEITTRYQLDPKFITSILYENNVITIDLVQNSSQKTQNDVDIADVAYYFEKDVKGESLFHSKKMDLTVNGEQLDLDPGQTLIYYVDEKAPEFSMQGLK
# Test: FACS, Kato III cells (FIG. 8A), anti-His detection
# From the text: as §1, §2
row,Binder,binding result
1,B7,binds
2,B8,binds
3,B1,binds
4,B2,binds
5,B3,binds
6,B4,binds
7,B5,binds
8,B6,binds
